# Experimental data reported in patent US20080058263A1 (published 2008).
# T1: VEGFR-3-Fc (UniProt P35916 25-328)
# T1 construct: domain: first three Ig domains; conditioned supernatant of 293T cells; also called VEGFR-3-Fc fusion protein; not shown: Fc fragment of the pIg vector
# T1 sequence (looked up): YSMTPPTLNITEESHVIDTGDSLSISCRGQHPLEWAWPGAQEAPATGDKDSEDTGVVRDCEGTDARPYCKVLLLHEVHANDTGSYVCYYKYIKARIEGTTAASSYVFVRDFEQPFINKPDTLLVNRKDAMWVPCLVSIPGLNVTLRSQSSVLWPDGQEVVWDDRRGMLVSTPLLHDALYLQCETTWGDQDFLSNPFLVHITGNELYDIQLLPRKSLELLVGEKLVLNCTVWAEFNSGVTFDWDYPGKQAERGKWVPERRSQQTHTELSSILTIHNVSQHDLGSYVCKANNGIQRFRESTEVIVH
# Columns and labels:
# Assay in all cases: receptor-Fc IP
# VEGFR-3-Fc = target: T1, VEGFR-3-Fc
# Procedure, shortened: (§1)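 Binding of ligand from sample supernatant measured by pentahistidine-antibody immunoprecipitation. IP mix: PBS with 1.5% BSA, 0.06% Tween 20, 3 μg/ml heparin and 400 ng/ml fusion protein, added 1:2 to sample supernatant.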
# VEGFR-1-Fc = target: T2, VEGFR-1-Fc (UniProt P17948 27-338)
# T2 construct: domain: first three Ig domains; expressed in Drosophila S2 cells, purified on Protein A sepharose; also called VEGFR-1-Fc fusion protein; not shown: Fc fragment from the Signal-pIgPlus vector
# T2 sequence (P17948 27-338): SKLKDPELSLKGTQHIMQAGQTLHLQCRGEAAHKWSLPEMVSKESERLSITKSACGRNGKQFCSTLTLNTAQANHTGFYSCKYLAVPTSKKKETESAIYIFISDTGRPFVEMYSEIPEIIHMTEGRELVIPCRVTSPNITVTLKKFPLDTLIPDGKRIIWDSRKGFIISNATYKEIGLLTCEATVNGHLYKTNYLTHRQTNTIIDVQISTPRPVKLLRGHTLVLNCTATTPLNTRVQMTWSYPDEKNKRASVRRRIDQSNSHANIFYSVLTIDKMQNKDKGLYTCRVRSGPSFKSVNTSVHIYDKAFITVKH
# Procedure, shortened: as §1
# VEGFR-2-Fc = target: T3, VEGFR-2-Fc (UniProt P35968 20-322)
# T3 construct: domain: first 3 Ig domains; conditioned supernatant of 293T cells; also called VEGFR-2-Fc fusion protein; not shown: Fc fragment of the pIg vector
# T3 sequence (P35968 20-322): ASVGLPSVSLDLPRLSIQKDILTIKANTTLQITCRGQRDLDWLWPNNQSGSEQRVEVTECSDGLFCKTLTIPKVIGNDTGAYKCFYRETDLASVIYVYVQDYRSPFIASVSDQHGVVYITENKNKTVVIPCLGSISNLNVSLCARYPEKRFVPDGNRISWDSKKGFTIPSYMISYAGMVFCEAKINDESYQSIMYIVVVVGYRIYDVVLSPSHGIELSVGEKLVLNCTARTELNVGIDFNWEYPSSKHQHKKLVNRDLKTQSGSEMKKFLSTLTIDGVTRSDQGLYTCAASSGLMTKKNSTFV
# Procedure, shortened: as §1
binding result (VEGFR-3-Fc),binding result (VEGFR-1-Fc),binding result (VEGFR-2-Fc),Binder
no binding,no binding,no binding,61-4 (ligand) GQNHHEVVKFMDVYQRSYCHPREVCIDVGKEYPDEIEYIFKPSCVPLMRCGGCCNSEGLQCMNTSTSYLSKTLFEIKPHQGQHIGEMSFLQHNKCECRPKKD
no binding,no binding,no binding,43-8 (ligand) AHYNTEILKFMDVYQRSYCHPREVCIDVGKEYPDEIEYIFKPPCVSVYRCGGCCNSEGLQCMNTSTSYLSKTLFEIKPHQGQHIGEMSFANHTSCRCMSKLD
no binding,no binding,no binding,43-6 (ligand) AHYNTEILKFMDVYQRSYCHPREVCIDVGKEYPDEIEYIFKPPCVSVYRCGGCCNDEGLECMNTSTSYLSKTLFEIKPHQGQHIGEMSFANHTSCRCMSKLD
no binding,no binding,no binding,62-6 (ligand) GQNHHEVVKFMDVYQRSYCHPREVCIDVGKEFGVATNTFFKPPCVSVYRCGGCCNDEGLECMNTSTSYLSKTLFEIKPHQGQHIGEMSFANHTSCRCMSKLD
no binding,no binding,no binding,61-6 (ligand) GQNHHEVVKFMDVYQRSYCHPREVCIDVGKEYPDEIEYIFKPSCVPLMRCGGCCNDEGLECMNTSTSYLSKTLFEIKPHQGQHIGEMSFANHTSCRCMSKLD
no binding,no binding,no binding,13-8 (ligand) GQNHHEVVKFMDVYQRSYCHPIETLVDIFQEYPDEIEYIFKPPCVSVYRCGGCCNSEGLQCMNTSTSYLSKTLFEIKPHQGQHIGEMSFANHTSCRCMSKLD
no binding,no binding,no binding,64-8 (ligand) GQNHHEVVKFMDVYQRSYCHPREVCIDVGKEFGVATNTFFKPSCVPLMRCGGCCNSEGLQCMNTSTSYLSKTLFEIKPHQGQHIGEMSFANHTSCRCMSKLD
no binding,no binding,binds,63-6 (ligand) GQNHHEVVKFMDVYQRSYCHPREVCIDVGKEYPDEIEYIFKPPCVSVYRCGGCCNDEGLECMNTSTSYLSKTLFEIKPHQGQHIGEMSFANHTSCRCMSKLD
no binding,no binding,binds,62-10 (ligand) GQNHHEVVKFMDVYQRSYCHPREVCIDVGKEFGVATNTFFKPPCVSVYRCGGCCNDEGLECMNTSTSYLSKTLFEITVPLSQGPKPVTISFLQHNKCECRPKKD
no binding,no binding,no binding,44-14 (ligand) AHYNTEILKFMDVYQRSYCHPREVCIDVGKEFGVATNTFFKPSCVPLMRCGGCCNDEGLECMNTSTSYLSKTLFEITVPLSQGPKPVTISFANHTSCRCMSKLD
no binding,no binding,no binding,42-14 (ligand) AHYNTEILKFMDVYQRSYCHPREVCIDVGKEFGVATNTFFKPPCVSVYRCGGCCNDEGLECMNTSTSYLSKTLFEITVPLSQGPKPVTISFANHTSCRCMSKLD
no binding,no binding,no binding,62-12 (ligand) GQNHHEVVKFMDVYQRSYCHPREVCIDVGKEFGVATNTFFKPPCVSVYRCGGCCNSEGLQCMNTSTSYLSKTLFEITVPLSQGPKPVTISFLQHNKCECRPKKD
no binding,no binding,no binding,42-16 (ligand) AHYNTEILKFMDVYQRSYCHPREVCIDVGKEFGVATNTFFKPPCVSVYRCGGCCNSEGLQCMNTSTSYLSKTLFEITVPLSQGPKPVTISFANHTSCRCMSKLD

# More lines, now with the values behind:
Binder,binding result (VEGFR-3-Fc),binding result (VEGFR-1-Fc),binding result (VEGFR-2-Fc)
"53-3 (ligand, clone entry) AHYNTEILKSIDNEWRKTQCMPIETLVDIFQEYPDEIEYIFKPPCVSVYRCGGCCNSEGLQCVPTEESNITMQIMRIKPHQGQHIGEMSFLQHNKCECRPKKDLV",binds,binds,binds
53-1 (ligand) AHYNTEILKSIDNEWRKTQCMPIETLVDIFQEYPDEIEYIFKPPCVSVYRCGGCCNDEGLECVPTEESNITMQIMRIKPHQGQHIGEMSFLQHNKCECRPKKD,no binding,no binding,binds
53-7 (ligand) AHYNTEILKSIDNEWRKTQCMPIETLVDIFQEYPDEIEYIFKPPCVSVYRCGGCCNSEGLQCVPTEESNITMQIMRIKPHQGQHIGEMSFANHTSCRCMSKLD,no binding,no binding,binds
62-1 (ligand) GQNHHEVVKFMDVYQRSYCHPREVCIDVGKEFGVATNTFFKPPCVSVYRCGGCCNDEGLECVPTEESNITMQIMRIKPHQGQHIGEMSFLQHNKCECRPKKD,no binding,binds,no binding
63-8 (ligand) GQNHHEVVKFMDVYQRSYCHPREVCIDVGKEYPDEIEYIFKPPCVSVYRCGGCCNSEGLQCMNTSTSYLSKTLFEIKPHQGQHIGEMSFANHTSCRCMSKLD,no binding,no binding,no binding
62-8 (ligand) GQNHHEVVKFMDVYQRSYCHPREVCIDVGKEFGVATNTFFKPPCVSVYRCGGCCNSEGLQCMNTSTSYLSKTLFEIKPHQGQHIGEMSFANHTSCRCMSKLD,no binding,no binding,binds
13-6 (ligand) GQNHHEVVKFMDVYQRSYCHPIETLVDIFQEYPDEIEYIFKPPCVSVYRCGGCCNDEGLECMNTSTSYLSKTLFEIKPHQGQHIGEMSFANHTSCRCMSKLD,no binding,no binding,no binding
61-8 (ligand) GQNHHEVVKFMDVYQRSYCHPREVCIDVGKEYPDEIEYIFKPSCVPLMRCGGCCNSEGLQCMNTSTSYLSKTLFEIKPHQGQHIGEMSFANHTSCRCMSKLD,no binding,no binding,no binding
52-9 (ligand) AHYNTEILKSIDNEWRKTQCMPIETLVDIFQEFGVATNTFFKPPCVSVYRCGGCCNDEGLECVPTEESNITMQIMRITVPLSQGPKPVTISFLQHNKCECRPKKD,binds,no binding,no binding
52-11 (ligand) AHYNTEILKSIDNEWRKTQCMPIETLVDIFQEFGVATNTFFKPPCVSVYRCGGCCNSEGLQCVPTEESNITMQIMRITVPLSQGPKPVTISFLQHNKCECRPKKD,binds,no binding,no binding
"52-15 (ligand, clone entry) AHYNTEILKSIDNEWRKTQCMPIETLVDIFQEFGVATNTFFKPPCVSVYRCGGCCNSEGLQCVPTEESNITMQIMRITVPLSQGPKPVTISFANHTSCRCMSKLD",binds,no binding,no binding
62-14 (ligand) GQNHHEVVKFMDVYQRSYCHPREVCIDVGKEFGVATNTFFKPPCVSVYRCGGCCNDEGLECMNTSTSYLSKTLFEITVPLSQGPKPVTISFANHTSCRCMSKLD,no binding,no binding,no binding
